Source: the supplement of paper PMC10724198
± gives the standard deviation of the averaged measurements.

system: Saccharomyces cerevisiae; assay: protein stability index of tFT-peptide fusion (C-terminal peptide) (PSI (0-1 scale)); higher = more stable (slower turnover); conditions: genetic background: wild type; temperature: 30 C
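Also: PSI is a weighted mean of sequencing reads over stability bins, variants kept only with over 10 reads, mCherry proximal and sfGFP distal, peptide attached via GGGS linker.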

Sequence | protein stability index
STQELHYCFVCL | 0.59 ± 0.022
STRPPVRYHGAS | 0.728 ± 0.066
STRRTSKCHQGI | 0.711 ± 0.019
STSAPPRVPTPR | 0.704 ± 0.078
STSSNGVGLPRL | 0.901 ± 0.11
STVHLPAPAWGS | 0.707 ± 0.033
SVAGGGSACRGC | 0.646 ± 0.039
SVAWPRLLSISP | 0.612 ± 0.0089
SVCFPPCSSLPP | 0.71 ± 0.19
SVFGCLPFDLMV | 0.735 ± 0.0088
SVFSPSTALLYP | 0.697 ± 0.02
SVGGLAALLCGL | 0.682 ± 0.037
SVGGSLGAGGGG | 0.682 ± 0.064
SVGKRRGVGVWN | 0.7007 ± 0.0031
SVGLPPPPPFPP | 0.629 ± 0.017
SVGLQLAFSAAV | 0.728 ± 0.061
SVLALKGFCWLG | 0.562 ± 0.042
SVPPCSLPPLPP | 0.6407 ± 0.0048
SVPPTCLHDAHF | 0.713 ± 0.053
SVPSAWCWVSSS | 0.6 ± 0.038
SVPTPSSNPRVK | 0.698 ± 0.05
SVQIKKIRRKNN | 0.6227 ± 0.0037
SVRDRCKENERF | 0.658 ± 0.043
SVRGMFPSAGVS | 0.6934 ± 0.00093
SVSDPLPPRQTV | 0.721 ± 0.057
SVSEIGYEIRSL | 0.739 ± 0.068

Sequence | protein stability index
SVSLSLLFFLPF | 0.675 ± 0.025
SVTLVPPPLPFP | 0.677 ± 0.054
SVVGNYHQTEPV | 0.702 ± 0.059
SVYTTGHTHTGR | 0.626 ± 0.17
SWALELARPGEG | 0.718 ± 0.013
SWFLLEVLSDFK | 0.649 ± 0.014
SWFVGFDGAVGG | 0.774 ± 0.088
SWGGELGATSGG | 0.708 ± 0.024
SWGGLGSFCRVI | 0.684 ± 0.014
SWGRYSYIEVMR | 0.7022 ± 0.0057
SWKFAFWCFLGR | 0.5675 ± 0.0056
SWPIWGSCGWRR | 0.739 ± 0.11
SWSLIFFGYFPF | 0.591 ± 0.029
SYFVSGADSLIL | 0.635 ± 0.017
SYGDPSTTRLSP | 0.701 ± 0.063
SYGPSGEFSFSF | 0.702 ± 0.0075
SYHRAAPFQSCD | 0.8 ± 0.12
SYPLSRPCSPCD | 0.677 ± 0.068
SYRGIGVGLCAG | 0.622 ± 0.016
SYTLSGYGSRDN | 0.698 ± 0.018
TAAEECIGRAIG | 0.671 ± 0.04
TAAHRASGEIAC | 0.684 ± 0.062
TAGVQSGCTRII | 0.618 ± 0.052
TAHHTRPQYLPL | 0.622 ± 0.022
TAKVYEKEGGEE | 0.671 ± 0.019
TAPPSISYVQAF | 0.639 ± 0.021

Sequence | protein stability index
TARGAAARSSQL | 0.747 ± 0.071
TASRSSRADERA | 0.591 ± 0.033
TCFYYVGGEKCM | 0.665 ± 0.0077
TCLGYKLHPARG | 0.718 ± 0.031
TCVASLSVLCLL | 0.574 ± 0.048
TDHTNCARDLGA | 0.664 ± 0.054
TDSRPKVGKRGN | 0.6583 ± 0.0025
TDWLMQRILRPF | 0.718 ± 0.028
TEGGKIEGGGRK | 0.682 ± 0.087
TEINEAQNIPEK | 0.6688 ± 0.0027
TEKRMIINIKIK | 0.735 ± 0.03
TERPPRRPKSQG | 0.715 ± 0.038
TFLGEAGSVGVT | 0.646 ± 0.03
TFSFSRPPLPPA | 0.6853 ± 0.0066
TFSPRLRPPPPP | 0.7078 ± 0.0041
TFTESRLRMRLG | 0.623 ± 0.086
TFVSPPPHPLRP | 0.636 ± 0.055
TGIGCRFIWCSK | 0.65 ± 0.037
TGLRLFGVLSLI | 0.607 ± 0.016
TGPGCWVCCVGE | 0.648 ± 0.048
TGSGQVSREERS | 0.671 ± 0.036
TGVRSAEAKRKQ | 0.579 ± 0.05
THPRPTLTRCST | 0.734 ± 0.081
THPTCPLHLLPT | 0.699 ± 0.039
THSQPPQYSRVP | 0.638 ± 0.071
THTPPPHRPSNR | 0.682 ± 0.22

Sequence | protein stability index
TICRKPTLMSPQ | 0.775 ± 0.061
TICVILNGVGYS | 0.625 ± 0.11
TIGPSYLLPDSF | 0.784 ± 0.018
TINSHNYKTKTP | 0.664 ± 0.021
TIPPSTRAITPV | 0.652 ± 0.046
TIRKNKTDVISK | 0.667 ± 0.017
TISHYSLAPTQI | 0.695 ± 0.02
TITRIAFRFCYS | 0.556 ± 0.032
TIVFLLPSPRSY | 0.657 ± 0.0094
TKKSKRKREQAE | 0.68 ± 0.026
TKRGQMLYQDKE | 0.741 ± 0.1
TKRIKEERTKKC | 0.65 ± 0.025
TKRQKQKKKNKE | 0.696 ± 0.071
TKTIKPNKKATV | 0.655 ± 0.03
TLFLFVSSFCMG | 0.47 ± 0.067
TLFQGHQLFKSR | 0.737 ± 0.0068
TLLTIALLTGNL | 0.606 ± 0.063
TLNSSPFTTPTI | 0.717 ± 0.074
TLPFLYILDFFF | 0.589 ± 0.0081
TLPPSPTPPLYP | 0.773 ± 0.031
TLPSHPRLLSLH | 0.6965 ± 0.0013
TLPSPPPRPPPA | 0.702 ± 0.061
TLQRARTGSTPK | 0.684 ± 0.055
TLRVNAMFVEAM | 0.63 ± 0.014
TLSSSPRPLPVP | 0.692 ± 0.051
TLTVCVNQGMTM | 0.668 ± 0.024

Sequence | protein stability index
TLTVRASLHLEP | 0.636 ± 0.025
TLVPPPSPPPSP | 0.636 ± 0.065
TLWLSGGGGMVI | 0.731 ± 0.04
TNATENKNRHPN | 0.741 ± 0.068
TNGHIVRLGRRV | 0.63 ± 0.011
TNKKQIEPSKIR | 0.763 ± 0.086
TNKNNKKKKEKI | 0.743 ± 0.049
TNQRKKTVAGEK | 0.672 ± 0.025
TNSQTKKKINKI | 0.661 ± 0.038
TNYIPRQSKKGG | 0.71 ± 0.022
TNYKIKDDRLHR | 0.699 ± 0.014
TPCTFPPLIRSP | 0.672 ± 0.039
TPFLPLPSRPRR | 0.726 ± 0.0078
TPHPPAAPPPPL | 0.766 ± 0.082
TPLGLSVSSPPT | 0.661 ± 0.14
TPLPLRFRCPYS | 0.639 ± 0.04
TPLPPSALPLPL | 0.724 ± 0.066
TPPSPLPPSPPR | 0.728 ± 0.058
TPQTTQIKNEKH | 0.789 ± 0.14
TPRAALVVSPLV | 0.7484 ± 0.0018
TPRYALVRHHPR | 0.695 ± 0.098
TPSCPALRGDAE | 0.661 ± 0.016
TPSLLSPPLSLA | 0.7036 ± 0.0027
TPSNTRPTLHIP | 0.6404 ± 0.0011
TPSSLLLISPPS | 0.703 ± 0.083
TQLNATVSWTEK | 0.665 ± 0.014

Sequence | protein stability index
TQSAPGIPGAGE | 0.65 ± 0.025
TQVGTLANASGP | 0.671 ± 0.046
TRAGRGGCASQD | 0.701 ± 0.028
TRCGGRWGEGWR | 0.72 ± 0.028
TRCRLRETISRR | 0.651 ± 0.067
TRCSIPSSLSLM | 0.677 ± 0.016
TRGTRGWGSVVG | 0.735 ± 0.018
TRLKKTEKTKER | 0.739 ± 0.025
TRLSRGTRVEYR | 0.651 ± 0.025
TRLTSATHGVCC | 0.6331 ± 0.0053
TRRAISPEGRWL | 0.645 ± 0.014
TRRGDRVGVGSA | 0.589 ± 0.072
TRYKSFWSLASI | 0.703 ± 0.064
TSASLLLSFAVP | 0.6768 ± 0.0022
TSGEIESTSKKK | 0.689 ± 0.055
TSGHSCGRGLLD | 0.64 ± 0.012
TSGLSSAGSRSL | 0.647 ± 0.044
TSGPVSCLCECL | 0.598 ± 0.029
TSKVEVDKGKLE | 0.723 ± 0.051
TSLKGHFGIRLW | 0.6763 ± 0.0021
TSMRRWSGRYGG | 0.743 ± 0.075
TSPLPTLLNDPP | 0.523 ± 0.0081
TSSWGGLVASLR | 0.74 ± 0.04
TSSYFVLFLTSP | 0.635 ± 0.087
TSVSLYWDSNLC | 0.751 ± 0.033
TTGGRGSRVGGR | 0.6975 ± 0.0024

Sequence | protein stability index
TTQPQVGHHRTS | 0.715 ± 0.021
TTRYKKQNRRKE | 0.74 ± 0.24
TTSRADKEPFRL | 0.675 ± 0.027
TTYYTKPPRPKR | 0.69 ± 0.035
TVACILPLAQSL | 0.706 ± 0.075
TVERRYTGDWGG | 0.726 ± 0.032
TVFDPLGLPALL | 0.617 ± 0.04
TVGGAMSCLGWL | 0.714 ± 0.011
TVSEQWKLLGER | 0.736 ± 0.051
TWMRIRLFRFIP | 0.5744 ± 0.0011
TWVGPIRISNQQ | 0.639 ± 0.01
TYIVVAPTLARL | 0.67 ± 0.095
TYSERADLCAQL | 0.678 ± 0.016
TYTELSFKNCVE | 0.713 ± 0.042
VAASGEVVPLMA | 0.604 ± 0.046
VACCKIRSGKSH | 0.687 ± 0.056
VAGGTCGGRACC | 0.694 ± 0.099
VALLRDSCLGVV | 0.671 ± 0.018
VARGVGGGVWRS | 0.704 ± 0.015
VASVWGVGFVAS | 0.694 ± 0.058
VAVRGGSGDWGR | 0.713 ± 0.023
VAVVSATVGASG | 0.68 ± 0.026
VAVWWVQCAGGV | 0.66131 ± 0.00034
VAWRQSVDLGLL | 0.685 ± 0.047
VAWSACRLSLWG | 0.889 ± 0.016
VAWYALPWCVLI | 0.6211 ± 0.0041

Sequence | protein stability index
VCAVPSILPPPP | 0.6902 ± 0.0061
VCCSDSLCFVVS | 0.601 ± 0.052
VCCSQWPLGFSV | 0.733 ± 0.068
VCEGFRTWALGG | 0.722 ± 0.03
VCESAGERVMGG | 0.705 ± 0.051
VCGFRVGGYIGV | 0.723 ± 0.064
VCGGGEGGERGG | 0.799 ± 0.057
VCGLGGCGGLGV | 0.731 ± 0.039
VCGSRAVRRTEL | 0.712 ± 0.07
VCSGPKSPATQQ | 0.695 ± 0.048
VCSGSGIGNLFE | 0.7912 ± 0.0019
VCSPLLIYSVGV | 0.624 ± 0.051
VCVDLFGLRASA | 0.631 ± 0.044
VCVVALCLPHLP | 0.583 ± 0.012
VDFVGFGGVEGG | 0.75 ± 0.059
VDHWVCWCGGWG | 0.7734 ± 0.0072
VDLGLYGYTDIW | 0.685 ± 0.035
VDLVSRVVFQDR | 0.7231 ± 0.0015
VDPAPPRRPPRY | 0.694 ± 0.097
VDSYTGGFDLSW | 0.681 ± 0.062
